# The Immune Epitope Database (IEDB)
# How the values were obtained:
# [1] = target: HLA-A*01:01; assay: IEDB peptide-MHC binding, purified MHC/direct/fluorescence; filed as Kd, often an IC50 or EC50 that approximates it; ≥ and ≤ were set here for values at or beyond the usual limits of such assays; settings: source organism: Entamoeba histolytica
# [2] = target: HLA-A*02:01; assay: as above; settings: source organism: Entamoeba histolytica
# [3] = target: HLA-A*02:03; assay: as above; settings: source organism: Entamoeba histolytica HM-1:IMSS
# [4] = target: HLA-A*02:06; assay: as above; settings: source organism: Entamoeba histolytica HM-1:IMSS
# [5] = target: HLA-A*02:11; assay: as above; settings: source organism: Entamoeba histolytica HM-1:IMSS
# [6] = target: HLA-A*02:12; assay: as above; settings: source organism: Entamoeba histolytica HM-1:IMSS
# [7] = target: HLA-A*02:19; assay: as above; settings: source organism: Entamoeba histolytica HM-1:IMSS
# [8] = target: HLA-A*03:01; assay: as above; settings: source organism: Entamoeba histolytica
# [9] = target: HLA-A*24:02; assay: as above; settings: source organism: Entamoeba histolytica
# [10] = target: HLA-A*69:01; assay: as above; settings: source organism: Entamoeba histolytica
# [11] = target: HLA-B*07:02; assay: as above; settings: source organism: Entamoeba histolytica
# [12] = target: HLA-B*15:01; assay: as above; settings: source organism: Entamoeba histolytica
# [13] = target: HLA-B*18:01; assay: as above; settings: source organism: Entamoeba histolytica
# [14] = target: HLA-B*27:05; assay: as above; settings: source organism: Entamoeba histolytica
# [15] = target: HLA-B*40:01; assay: as above; settings: source organism: Entamoeba histolytica
# [16] = target: HLA-B*44:02; assay: as above; settings: source organism: Entamoeba histolytica
# [17] = target: HLA-B*58:01; assay: as above; settings: source organism: Entamoeba histolytica
# [18] = target: HLA-C*08:02; assay: as above; settings: source organism: Entamoeba histolytica HM-1:IMSS
# [19] = target: HLA-C*15:02; assay: as above; settings: source organism: Entamoeba histolytica HM-1:IMSS
# [20] = target: HLA-A*02:50; assay: IEDB peptide-MHC binding, purified MHC/competitive/fluorescence; filed as Kd, often an IC50 or EC50 that approximates it; ≥ and ≤ were set here for values at or beyond the usual limits of such assays; settings: source organism: Entamoeba histolytica HM-1:IMSS
# [21] = target: HLA-A*03:19; assay: as above; settings: source organism: Entamoeba histolytica HM-1:IMSS
# [22] = target: HLA-B*15:42; assay: as above; settings: source organism: Entamoeba histolytica HM-1:IMSS
# [23] = target: HLA-B*45:06; assay: as above; settings: source organism: Entamoeba histolytica HM-1:IMSS
# [24] = target: HLA-B*83:01; assay: as above; settings: source organism: Entamoeba histolytica HM-1:IMSS
# [25] = target: HLA-C*06:02; assay: as above; settings: source organism: Entamoeba histolytica HM-1:IMSS
# [26] = target: HLA-A*02:01; assay: as above; settings: source organism: Vibrio antiquarius
# [27] = target: HLA-A*02:03; assay: as above; settings: source organism: Vibrio antiquarius
# [28] = target: HLA-A*02:11; assay: as above; settings: source organism: Vibrio antiquarius
# [29] = target: HLA-A*02:12; assay: as above; settings: source organism: Vibrio antiquarius
# [30] = target: HLA-A*02:19; assay: as above; settings: source organism: Vibrio antiquarius
# [31] = target: HLA-A*03:01; assay: as above; settings: source organism: Vibrio antiquarius
# [32] = target: HLA-A*23:01; assay: as above; settings: source organism: Vibrio antiquarius
# [33] = target: HLA-A*24:03; assay: as above; settings: source organism: Vibrio antiquarius
# [34] = target: HLA-A*25:01; assay: as above; settings: source organism: Vibrio antiquarius
# [35] = target: HLA-A*26:01; assay: as above; settings: source organism: Vibrio antiquarius
# [36] = target: HLA-A*29:02; assay: as above; settings: source organism: Vibrio antiquarius
# [37] = target: HLA-A*68:02; assay: as above; settings: source organism: Vibrio antiquarius
# [38] = target: HLA-A*69:01; assay: as above; settings: source organism: Vibrio antiquarius
# [39] = target: HLA-A*80:01; assay: as above; settings: source organism: Vibrio antiquarius
# [40] = target: HLA-B*15:01; assay: as above; settings: source organism: Vibrio antiquarius
# [41] = target: HLA-B*15:17; assay: as above; settings: source organism: Vibrio antiquarius
# [42] = target: HLA-B*18:01; assay: as above; settings: source organism: Vibrio antiquarius
# [43] = target: HLA-B*27:03; assay: as above; settings: source organism: Vibrio antiquarius
# [44] = target: HLA-B*39:01; assay: as above; settings: source organism: Vibrio antiquarius
# [45] = target: HLA-B*46:01; assay: as above; settings: source organism: Vibrio antiquarius
# [46] = target: HLA-B*51:01; assay: as above; settings: source organism: Vibrio antiquarius
# [47] = target: HLA-B*57:01; assay: as above; settings: source organism: Vibrio antiquarius
sequence,measurement,setting,value
KLMPGSIYV,Kd,[1],≥ 20 µM
same,Kd,[2],0.0062 µM
same,Kd,[3],≤ 0.001 µM
same,Kd,[4],0.002 µM
same,Kd,[5],≤ 0.001 µM
same,Kd,[6],0.002 µM
same,Kd,[7],≤ 0.001 µM
same,Kd,[8],0.138 µM
same,Kd,[9],≥ 20 µM
same,Kd,[10],0.368 µM
same,Kd,[11],≥ 20 µM
same,Kd,[12],0.127 µM
same,Kd,[13],≥ 20 µM
same,Kd,[14],≥ 20 µM
same,Kd,[15],≥ 20 µM
same,Kd,[16],≥ 20 µM
same,Kd,[17],≥ 20 µM
same,Kd,[18],≥ 20 µM
same,Kd,[19],0.071 µM
same,Kd,[20],≤ 0.0001 µM
same,Kd,[21],0.109 µM
same,Kd,[22],≥ 5 µM
same,Kd,[23],≥ 5 µM
same,Kd,[24],≥ 5 µM
same,Kd,[25],1.17 µM
SLTIPSFYT,Kd,[26],≥ 20 µM
same,Kd,[27],≥ 20 µM
same,Kd,[28],0.0097 µM
same,Kd,[29],≥ 20 µM
same,Kd,[30],≥ 20 µM
same,Kd,[31],≥ 20 µM
same,Kd,[32],≥ 20 µM
same,Kd,[33],≥ 20 µM
same,Kd,[34],≥ 20 µM
same,Kd,[35],≥ 20 µM
same,Kd,[36],≥ 20 µM
same,Kd,[37],≥ 20 µM
same,Kd,[38],≥ 20 µM
same,Kd,[39],≥ 20 µM
same,Kd,[40],≥ 20 µM
same,Kd,[41],≥ 20 µM
same,Kd,[42],≥ 20 µM
same,Kd,[43],≥ 20 µM
same,Kd,[44],≥ 20 µM
same,Kd,[45],≥ 20 µM
same,Kd,[46],≥ 20 µM
same,Kd,[47],≥ 20 µM
